# Assay results published in patent US20240150422A1 (ONKO INNATE, published 2024).
# Where a chain is given by its changes, count along the chain named. Names may count otherwise.
# T1: wild-type IL-12 heterodimeric Fc fusion protein (IgG1Fc(knob)-IL12p35 / IgG1Fc(hole)-IL12p40) (human, UniProt P29459 23-219; P29460 23-328)
# T1 construct: also called wild-type IL-12 Fc; IL-12 Fc wt; not shown: human IgG1 Fc (knob) with artificial disulfide and N297G; human IgG1 Fc (hole) with artificial disulfide and N297G
# T1 sequence 1: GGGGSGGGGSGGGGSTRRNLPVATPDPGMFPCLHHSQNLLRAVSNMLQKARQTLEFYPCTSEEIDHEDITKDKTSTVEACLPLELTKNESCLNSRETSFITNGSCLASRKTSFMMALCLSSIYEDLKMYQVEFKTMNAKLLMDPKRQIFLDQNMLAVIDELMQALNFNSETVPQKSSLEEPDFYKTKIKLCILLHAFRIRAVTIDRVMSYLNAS
# T1 sequence 2: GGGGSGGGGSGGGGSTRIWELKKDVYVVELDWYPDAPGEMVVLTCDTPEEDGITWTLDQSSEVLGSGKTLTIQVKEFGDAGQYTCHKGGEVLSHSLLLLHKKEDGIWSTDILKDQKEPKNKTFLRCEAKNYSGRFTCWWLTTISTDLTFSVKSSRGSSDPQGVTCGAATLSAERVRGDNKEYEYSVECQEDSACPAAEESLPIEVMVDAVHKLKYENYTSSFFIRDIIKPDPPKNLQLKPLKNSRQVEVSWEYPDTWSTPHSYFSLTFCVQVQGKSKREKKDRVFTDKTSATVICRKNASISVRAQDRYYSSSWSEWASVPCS
# B1: IL-12 Fc K170A mutant (Fc-C-terminal fusion format of Example 1) (Fc fusion, not shown: a dimerising Fc or GST)
# chain 1: T1 sequence 1 with K187A
# chain 2: T1 sequence 2
# B2: IL-12 Fc single mutant K168A (Fc-C-terminal fusion format of Example 1) (Fc fusion)
# chain 1: T1 sequence 1 with K185A
# chain 2: T1 sequence 2
# notes: not shown: human IgG1 Fc (knob) with artificial disulfide and N297G; human IgG1 Fc (hole) with artificial disulfide and N297G
# B3: IL-12 Fc single mutant P127A (Fc-C-terminal fusion format of Example 1) (Fc fusion)
# chain 1: T1 sequence 1 with P144A
# chain 2: T1 sequence 2
# notes: as for B2
# B4: IL-12 Fc single mutant D126A (Fc-C-terminal fusion format of Example 1) (Fc fusion)
# chain 1: T1 sequence 1 with D143A
# chain 2: T1 sequence 2
# notes: as for B2
# B5: truncated form of the IL-12Rβ2 extracellular region (domains 1-3) (receptor)
# chain: KIDACKRGDVTVKPSHVILLGSTVNITCSLKPRQGCFHYSRRNKLILYKFDRRINFHHGHSLNSQVTGLPLGTTLFVCKLACINSDEIQICGAEIFVGVAPEQPQNLSCIQKGEQGTVACTWERGRDTHLYTEYTLQLSGPKNLTWQKQCKDIYCDYLDFGINLTPESPESNFTAKVTAVNSLGSSSSLPSTFTFLDIVRPLPPWDIRIKFQKASVSRCTLYWRDEGLVLLNRLRYRPSNSRLWNMVNVTKAKGRHDLLDLKPFTEYEFQISSKLHLYKGSWSDWSESLRAQTPEE
# notes: also called interleukin 12 receptor beta 2
# B6: IL-12 Fc single mutant Y40A (Fc-C-terminal fusion format of Example 1) (Fc fusion, not shown: a dimerising Fc or GST)
# chain 1: T1 sequence 1 with Y57A
# chain 2: T1 sequence 2
# How the values were obtained:
# [1] = target: IL-12 receptor on HEK-Blue IL-12 cells (InvivoGen) (human, UniProt P42701 24-662; Q99665 24-862); experiment: cell-based or functional assay
# [2] = target: B5; experiment: SPR (Biacore T100, 20 C); IL-12 Fc captured on a protein A chip (230 RU), IL-12Rbeta2 (domains 1-3) as analyte; 1:1 Langmuir model
# Procedure: (§1) SPR measurements were recorded on a Biacore T100 at 20° C. in a buffer comprising 20 mM sodium phosphate pH 7.4, 150 mM NaCl and 0.05% Tween20. […] Following a 300 second dissociation phase, the remaining bound IL-12Rβ2 was washed off the chip using 50 mM Glycine pH 2.5, followed by 50 mM NaOH (30 second injections for each). Kinetic parameters were calculated using BIAevaluation software using a 1:1 Langmuir model, following subtraction of binding to a reference flow cell containing an isotype control antibody.
# [3] = target: B5; experiment: SPR (Biacore T100, 20 C); IL-12 Fc captured on a protein A chip (190 RU), IL-12Rbeta2 (domains 1-3) as analyte; 1:1 Langmuir model
# Procedure: as §1
# [4] = target: B5; experiment: SPR (Biacore T100, 20 C); IL-12 Fc captured on a protein A chip (220 RU), IL-12Rbeta2 (domains 1-3) as analyte; 1:1 Langmuir model
# Procedure: as §1
# [5] = target: T1, wild-type IL-12 heterodimeric Fc fusion …; experiment: SPR as in Example 3; immobilized IL-12 Fc, IL-12Rbeta2 injected at 0.7-500 nM
# Procedure: as §1
# [6] = target: T1, wild-type IL-12 heterodimeric Fc fusion …; experiment: SPR (Biacore T100, 20 °C), IL-12 Fc captured on protein A chip, IL-12Rβ2 domains 1-3 as analyte, 1:1 Langmuir model
# Procedure: as §1
binder,measurement,setting,value
B1,"HEK-Blue IL-12 reporter assay, fold reduction in EC50 value",[1],~16 fold (vs wild-type)
B2,Kd,[2],130 nM
B3,"HEK-Blue IL-12 reporter assay, fold reduction in potency",[1],~2 fold (vs IL-12 Fc w.t.)
same,Kd,[3],44.3 nM
B4,Kd,[4],42.9 nM
B5,Kd,[5],53.2 nM
same,Kd,[6],13.1 nM
B6,"HEK-Blue IL-12 reporter assay, fold reduction in EC50 value",[1],~17 fold (vs IL-12 Fc w.t.)
same,"HEK-Blue IL-12 reporter assay, fold reduction in potency",[1],~29 fold (vs IL-12 Fc w.t.)
